This note sets out measurements from patent US20250388666A1 (BRIGHAM AND WOMEN S HOSPITAL, published 2025).

Substitutions are numbered along the chain they refer to. Names and notes keep the numbering of the source.

This experiment addresses T1, CEACAM1 (Sino Biological) (human, UniProt P13688 35-428, limits assumed).
T1 construct: may be the same as CEACAM1-HIS; also called hCEACAM1; biotinylated soluble CEACAM1
T1 sequence: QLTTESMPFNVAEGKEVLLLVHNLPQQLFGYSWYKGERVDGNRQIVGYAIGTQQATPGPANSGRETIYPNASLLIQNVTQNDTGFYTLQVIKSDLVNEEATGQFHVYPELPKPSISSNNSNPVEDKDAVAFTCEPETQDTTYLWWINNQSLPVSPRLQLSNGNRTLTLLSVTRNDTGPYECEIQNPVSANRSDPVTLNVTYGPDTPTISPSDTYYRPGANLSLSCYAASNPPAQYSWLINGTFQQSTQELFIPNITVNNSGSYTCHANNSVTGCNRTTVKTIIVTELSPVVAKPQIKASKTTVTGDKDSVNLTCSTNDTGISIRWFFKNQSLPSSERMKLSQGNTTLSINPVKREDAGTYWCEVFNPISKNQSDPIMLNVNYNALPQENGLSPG
The experiment can be described thus: SPR single-cycle. In short, it runs like this:
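Humanized affinity-matured IgGs from crude supernatants captured on Protein A to ~100 RU, with CEACAM1 analyte injected at 25–100 nM (three-point, two-fold) in HBS-P+ without regeneration. 200 s association per injection, 300 s single dissociation; reference-channel and blank subtracted.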

B1: He14/L4#2 (antibody, IgG4, V domains shown)
VH: EVQLLESGGGLVQPGGSLRLSCAASGFSFSDYYLYWVRQAPGKGLEWVATISVGGGQTSYADSVKGRFTISRDNSKNTLYLQMNSLRAEDTAMYYCTRGLYYGPSWVAYWGQGTLVTVSS
VL: DIVMTQSPDSLAVSLGERATINCKSSQSLLNSANQKNYLAWYQQKPGQPPKLLIYFASTRESGVPDRFSGSGSGTDFTLTISSLQAEDVAVYYCQSHYPYPYTFGGGTKVEIK
notes: IgG4 S241P, kappa
The Kd is the constant that tells how readily two partners part at equilibrium. The low end stands for tighter binding, the high end for weaker binding. In the case of B1, the Kd amounted to 396 nM and the “fold better than Parent (KD)” value worked out at 1.39 fold.

B2: He17/L3 (antibody, IgG4, V domains shown)
VH: B1 VH with G99A, L100R, Y101T, S105A, V107F
VL: B1 VL with Y98F, Y100F, Y102F
notes: IgG4 S241P, kappa
Consider B2, for which the Kd turned out to be 95 nM and the “fold better than Parent (KD)” value worked out at 1.68 fold.

B3: He14/L20 (antibody, IgG4, V domains shown)
VH: B1 VH
VL: B1 VL with Y98F, Y102L
notes: IgG4 S241P, kappa
B3: binding was characterised by a dissociation constant (Kd) of 114 nM and the “fold better than Parent (KD)” value was found to be 1.39 fold.

B4: He17/L4 #1 (antibody, IgG4, V domains shown)
VH: B1 VH with G99A, L100R, Y101T, S105A, V107F
VL: B1 VL with Y98F, P101Y
notes: IgG4 S241P, kappa
On to B4, for which binding was put at a Kd of 165 nM and the “fold better than Parent (KD)” value was 0.96 fold.

B5: He14/Parent VL (antibody, IgG4, V domains shown)
VH: B1 VH
VL: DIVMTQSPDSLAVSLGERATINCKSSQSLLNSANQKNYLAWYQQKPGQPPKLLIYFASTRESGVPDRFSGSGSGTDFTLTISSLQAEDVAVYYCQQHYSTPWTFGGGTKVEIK
notes: IgG4 S241P, kappa
Take B5: the Kd came to 88 nM and the “fold better than Parent (KD)” value amounted to 1.8 fold.

B6: He14/L16 (antibody, IgG4, V domains shown)
VH: B1 VH
VL: B1 VL with Y102F
notes: IgG4 S241P, kappa
Regarding B6, binding was characterised by a dissociation constant (Kd) of 93 nM and the “fold better than Parent (KD)” value is 1.7 fold.

B7: He14/L17 (antibody, IgG4, V domains shown)
VH: B1 VH
VL: B1 VL
notes: IgG4 S241P, kappa
B7: binding was put at a Kd of 97 nM and the “fold better than Parent (KD)” value was 1.64 fold.

B8: He17/L5 (antibody, IgG4, V domains shown)
VH: B1 VH with G99A, L100R, Y101T, S105A, V107F
VL: B1 VL with Y100F, P101A, Y102F
notes: IgG4 S241P, kappa
As to B8, the affinity, expressed as Kd, was 81 nM and the “fold better than Parent (KD)” value turned out to be 1.97 fold.

B9: He14/L5 (antibody, IgG4, V domains shown)
VH: B1 VH
VL: B1 VL with Y100F, P101A, Y102F
notes: IgG4 S241P, kappa
On to B9, for which the Kd is 102 nM and the “fold better than Parent (KD)” value stood at 1.56 fold.

B10: He14/L19 (antibody, IgG4, V domains shown)
VH: B1 VH
VL: B1 VL with Y98I, P99Y, Y100P, P101N, Y102F
notes: IgG4 S241P, kappa
For the molecule B10, the dissociation constant (Kd) was found to be 87 nM and the “fold better than Parent (KD)” value stood at 1.83 fold.

B11: Parent VH/L17 (antibody, IgG4, V domains shown)
VH: B1 VH with S105A, V107F
VL: B1 VL
notes: IgG4 S241P, kappa
With B11, the Kd came out at 76 nM and the “fold better than Parent (KD)” value was determined as 2.08 fold.

B12: He17/L2 (antibody, IgG4, V domains shown)
VH: B1 VH with G99A, L100R, Y101T, S105A, V107F
VL: B1 VL with Y100F
notes: IgG4 S241P, kappa
B12: the dissociation constant (Kd) worked out at 82 nM and the “fold better than Parent (KD)” value was found to be 1.95 fold.

B13: He17/L6 (antibody, IgG4, V domains shown)
VH: B1 VH with G99A, L100R, Y101T, S105A, V107F
VL: B1 VL with Y100F, P101S, Y102F
notes: IgG4 S241P, kappa
Regarding B13, the Kd stood at 79 nM and the “fold better than Parent (KD)” value is 2.01 fold.

B14: He17/L19 (antibody, IgG4, V domains shown)
VH: B1 VH with G99A, L100R, Y101T, S105A, V107F
VL: B1 VL with Y98I, P99Y, Y100P, P101N, Y102F
notes: IgG4 S241P, kappa
Consider B14, for which binding was put at a Kd of 135 nM and the “fold better than Parent (KD)” value stood at 1.18 fold.

B15: He14/L18 (antibody, IgG4, V domains shown)
VH: B1 VH
VL: B1 VL with Y98F, Y102F
notes: IgG4 S241P, kappa
For B15, binding was put at a Kd of 91 nM and the “fold better than Parent (KD)” value turned out to be 1.75 fold.

B16: Parent VH/L6 (antibody, IgG4, V domains shown)
VH: B1 VH with S105A, V107F
VL: B1 VL with Y100F, P101S, Y102F
notes: IgG4 S241P, kappa
In the case of B16, the dissociation constant (Kd) worked out at 57 nM and the “fold better than Parent (KD)” value is 2.81 fold.

B17: He17/L17 (antibody, IgG4, V domains shown)
VH: B1 VH with G99A, L100R, Y101T, S105A, V107F
VL: B1 VL
notes: IgG4 S241P, kappa
As for B17, the equilibrium dissociation constant (Kd) turned out to be 104 nM and the “fold better than Parent (KD)” value amounted to 1.53 fold.

B18: He17/L4#2 (antibody, IgG4, V domains shown)
VH: B1 VH with G99A, L100R, Y101T, S105A, V107F
VL: B1 VL
notes: IgG4 S241P, kappa
Regarding B18, the dissociation constant (Kd) was determined as 258 nM and the “fold better than Parent (KD)” value was determined as 2.14 fold.

B19: He17/Parent VL (antibody, IgG4, V domains shown)
VH: B1 VH with G99A, L100R, Y101T, S105A, V107F
VL: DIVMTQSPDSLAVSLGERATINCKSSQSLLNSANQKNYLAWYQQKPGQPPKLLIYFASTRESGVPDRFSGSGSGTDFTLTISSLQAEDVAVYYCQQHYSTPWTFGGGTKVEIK
notes: IgG4 S241P, kappa
Take B19: the Kd was determined as 128 nM and the “fold better than Parent (KD)” value amounted to 1.24 fold.

B20: He17/L20 (antibody, IgG4, V domains shown)
VH: B1 VH with G99A, L100R, Y101T, S105A, V107F
VL: B1 VL with Y98F, Y102L
notes: IgG4 S241P, kappa
As to B20, the equilibrium dissociation constant (Kd) worked out at 99 nM and the “fold better than Parent (KD)” value is 1.61 fold.

B21: Parent VH/L4 #1 (antibody, IgG4, V domains shown)
VH: B1 VH with S105A, V107F
VL: B1 VL with Y98F, P101Y
notes: IgG4 S241P, kappa
Consider B21, for which the Kd was 103 nM and the “fold better than Parent (KD)” value worked out at 1.54 fold.

B22: He14/L6 (antibody, IgG4, V domains shown)
VH: B1 VH
VL: B1 VL with Y100F, P101S, Y102F
notes: IgG4 S241P, kappa
On to B22, for which the Kd came to 111 nM and the “fold better than Parent (KD)” value stood at 1.43 fold.

B23: Parent VH/L3 (antibody, IgG4, V domains shown)
VH: B1 VH with S105A, V107F
VL: B1 VL with Y98F, Y100F, Y102F
notes: IgG4 S241P, kappa
Turning to B23, the dissociation constant Kd stood at 63 nM and the “fold better than Parent (KD)” value stood at 2.53 fold.

B24: Parent VH/L5 (antibody, IgG4, V domains shown)
VH: B1 VH with S105A, V107F
VL: B1 VL with Y100F, P101A, Y102F
notes: IgG4 S241P, kappa
Regarding B24, binding was put at a Kd of 66 nM and the “fold better than Parent (KD)” value is 2.42 fold.

B25: Parent VH/L2 (antibody, IgG4, V domains shown)
VH: B1 VH with S105A, V107F
VL: B1 VL with Y100F
notes: IgG4 S241P, kappa
As for B25, the dissociation constant Kd amounted to 70 nM and the “fold better than Parent (KD)” value came out at 2.26 fold.

B26: He17/L18 (antibody, IgG4, V domains shown)
VH: B1 VH with G99A, L100R, Y101T, S105A, V107F
VL: B1 VL with Y98F, Y102F
notes: IgG4 S241P, kappa
Consider B26, for which the dissociation constant Kd turned out to be 98 nM and the “fold better than Parent (KD)” value worked out at 1.62 fold.
